Tests used:
PARP1 [1] = target: T1, PARP1 (human, UniProt P09874 1-1014); experiment: photo-cross-linking; no NAD+; 200 nM PARP1, 100 nM DNA; EMSA: 50 mM Tris-HCl pH 8.0, 20 mM NaCl, 0.25 mM EDTA, 5% glycerol, 0.025% NP-40, 37 °C 20 min; 8% PAAG, 0.5x TBE, 10 °C; conditions: protein: recombinant; label: 5'-32P; 5' overhang 4 nt on strand 1; other end blunt
PARP2 = PARP2 (human, UniProt Q9UGN5 1-583); experiment: photo-cross-linking; no NAD+; 200 nM PARP2, 100 nM DNA; EMSA: 50 mM Tris-HCl pH 8.0, 20 mM NaCl, 0.25 mM EDTA, 5% glycerol, 0.025% NP-40, 37 °C 20 min; 8% PAAG, 0.5x TBE, 10 °C; conditions: protein: recombinant; label: 5'-32P; 5' overhang 4 nt on strand 1; other end blunt
PARP1 [2] = target: T1, PARP1; experiment: photo-cross-linking; 100 nM DNA, 100 nM protein; EMSA: 50 mM Tris-HCl pH 8.0, 20 mM NaCl, 0.25 mM EDTA, 5% glycerol, 0.025% NP-40, 37 °C 20 min; 8% PAAG, 0.5x TBE, 10 °C; conditions: protein: recombinant; nicked duplex, blunt ends, strands 1 and 2 paired to strand 3
Ku antigen (Ku70/Ku80) = Ku antigen (Ku70/Ku80) (UniProt P12956;P13010 1-609;1-732); experiment: photo-cross-linking; 100 nM DNA, 100 nM protein; Ku70 and Ku80 labelled; EMSA: 50 mM Tris-HCl pH 8.0, 20 mM NaCl, 0.25 mM EDTA, 5% glycerol, 0.025% NP-40, 37 °C 20 min; 8% PAAG, 0.5x TBE, 10 °C; conditions: copies: 1;1; nicked duplex, blunt ends, strands 1 and 2 paired to strand 3
PARP3 = target: T2, PARP3 (UniProt Q9Y6F1 1-533); experiment: EMSA; 10 nM DNA, up to 10-fold PARP3 excess; EMSA: 50 mM Tris-HCl pH 8.0, 20 mM NaCl, 0.25 mM EDTA, 5% glycerol, 0.025% NP-40, 37 °C 20 min; 8% PAAG, 0.5x TBE, 10 °C; conditions: protein: recombinant; label: 5'-32P on O1-Pho strand; 5' overhang 5 nt on strand 1 as printed; other end blunt
T2 sequence: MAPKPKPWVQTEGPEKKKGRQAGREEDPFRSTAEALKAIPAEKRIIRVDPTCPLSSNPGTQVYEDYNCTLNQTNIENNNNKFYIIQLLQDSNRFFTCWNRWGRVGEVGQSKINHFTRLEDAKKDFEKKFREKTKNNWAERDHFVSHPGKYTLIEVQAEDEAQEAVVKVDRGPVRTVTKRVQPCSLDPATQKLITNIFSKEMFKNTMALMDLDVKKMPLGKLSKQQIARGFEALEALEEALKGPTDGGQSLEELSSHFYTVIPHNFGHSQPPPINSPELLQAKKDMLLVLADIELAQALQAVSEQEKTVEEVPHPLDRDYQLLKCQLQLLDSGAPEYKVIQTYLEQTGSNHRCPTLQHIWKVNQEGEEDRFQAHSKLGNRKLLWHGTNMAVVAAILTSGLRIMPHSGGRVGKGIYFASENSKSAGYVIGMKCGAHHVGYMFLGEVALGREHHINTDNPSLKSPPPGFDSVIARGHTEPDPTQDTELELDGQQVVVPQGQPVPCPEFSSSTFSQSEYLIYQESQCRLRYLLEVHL

T1 sequence (P09874 whole entry): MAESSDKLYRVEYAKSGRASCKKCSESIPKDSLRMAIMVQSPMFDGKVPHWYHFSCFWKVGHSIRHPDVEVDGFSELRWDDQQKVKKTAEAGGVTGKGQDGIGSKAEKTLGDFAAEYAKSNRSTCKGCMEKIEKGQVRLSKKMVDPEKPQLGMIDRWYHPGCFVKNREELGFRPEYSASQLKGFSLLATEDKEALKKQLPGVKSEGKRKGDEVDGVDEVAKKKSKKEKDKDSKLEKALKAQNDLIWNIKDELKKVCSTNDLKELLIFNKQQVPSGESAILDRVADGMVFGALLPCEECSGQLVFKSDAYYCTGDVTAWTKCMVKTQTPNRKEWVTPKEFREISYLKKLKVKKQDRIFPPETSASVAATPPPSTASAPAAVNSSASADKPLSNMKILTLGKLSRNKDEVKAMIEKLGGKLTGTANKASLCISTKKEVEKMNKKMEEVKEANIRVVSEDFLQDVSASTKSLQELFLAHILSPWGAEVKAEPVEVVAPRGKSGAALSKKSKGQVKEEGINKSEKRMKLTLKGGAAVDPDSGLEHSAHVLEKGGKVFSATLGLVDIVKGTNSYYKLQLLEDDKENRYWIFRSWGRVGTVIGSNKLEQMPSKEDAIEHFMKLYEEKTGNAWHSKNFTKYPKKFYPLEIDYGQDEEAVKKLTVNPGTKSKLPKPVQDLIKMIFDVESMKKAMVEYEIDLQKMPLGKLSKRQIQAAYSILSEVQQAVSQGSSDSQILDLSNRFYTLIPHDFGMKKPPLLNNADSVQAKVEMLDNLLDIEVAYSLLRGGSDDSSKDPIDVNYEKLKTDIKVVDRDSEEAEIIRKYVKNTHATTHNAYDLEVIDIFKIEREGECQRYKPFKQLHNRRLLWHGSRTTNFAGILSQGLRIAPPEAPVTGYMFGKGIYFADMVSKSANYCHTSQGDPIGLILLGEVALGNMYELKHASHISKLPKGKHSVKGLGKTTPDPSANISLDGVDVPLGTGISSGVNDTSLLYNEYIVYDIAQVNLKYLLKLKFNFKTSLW
Sequence of Ku antigen (Ku70/Ku80) (P12956 whole entry, chain 1 of 2): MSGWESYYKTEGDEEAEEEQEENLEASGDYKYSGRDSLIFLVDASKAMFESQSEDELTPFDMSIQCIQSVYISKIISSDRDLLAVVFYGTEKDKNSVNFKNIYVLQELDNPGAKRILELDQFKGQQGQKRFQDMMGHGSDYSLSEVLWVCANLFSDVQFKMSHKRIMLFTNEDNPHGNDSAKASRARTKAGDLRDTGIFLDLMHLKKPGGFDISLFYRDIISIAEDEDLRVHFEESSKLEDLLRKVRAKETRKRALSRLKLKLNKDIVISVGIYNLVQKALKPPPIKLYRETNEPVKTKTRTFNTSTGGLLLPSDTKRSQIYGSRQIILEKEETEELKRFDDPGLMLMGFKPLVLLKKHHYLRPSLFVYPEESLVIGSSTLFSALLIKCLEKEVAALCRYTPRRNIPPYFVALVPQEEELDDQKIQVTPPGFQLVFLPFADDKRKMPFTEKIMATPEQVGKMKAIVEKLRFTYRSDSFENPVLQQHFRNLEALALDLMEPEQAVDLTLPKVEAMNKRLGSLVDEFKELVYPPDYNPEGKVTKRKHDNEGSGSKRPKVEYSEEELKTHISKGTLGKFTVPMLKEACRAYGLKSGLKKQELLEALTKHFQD
Sequence of Ku antigen (Ku70/Ku80) (P13010 whole entry, chain 2 of 2): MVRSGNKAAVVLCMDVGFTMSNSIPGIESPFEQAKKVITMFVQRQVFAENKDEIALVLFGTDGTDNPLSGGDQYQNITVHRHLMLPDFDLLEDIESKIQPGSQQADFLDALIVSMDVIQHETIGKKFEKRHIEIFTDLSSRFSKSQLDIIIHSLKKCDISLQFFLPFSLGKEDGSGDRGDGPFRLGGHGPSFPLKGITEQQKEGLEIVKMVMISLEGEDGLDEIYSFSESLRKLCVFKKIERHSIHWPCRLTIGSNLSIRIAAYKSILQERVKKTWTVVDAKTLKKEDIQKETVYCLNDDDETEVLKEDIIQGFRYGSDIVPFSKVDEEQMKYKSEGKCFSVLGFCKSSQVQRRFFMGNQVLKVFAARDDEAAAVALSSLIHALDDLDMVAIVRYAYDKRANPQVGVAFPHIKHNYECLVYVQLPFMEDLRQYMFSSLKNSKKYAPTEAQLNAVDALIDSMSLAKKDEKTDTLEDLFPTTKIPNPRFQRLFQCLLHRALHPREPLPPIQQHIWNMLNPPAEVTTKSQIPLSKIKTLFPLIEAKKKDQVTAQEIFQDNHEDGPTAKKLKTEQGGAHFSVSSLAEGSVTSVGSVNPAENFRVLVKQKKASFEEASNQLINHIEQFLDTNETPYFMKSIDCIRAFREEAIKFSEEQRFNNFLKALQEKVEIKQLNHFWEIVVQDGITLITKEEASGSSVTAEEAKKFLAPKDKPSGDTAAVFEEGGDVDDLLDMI
Sequence of PARP2 (Q9UGN5 whole entry): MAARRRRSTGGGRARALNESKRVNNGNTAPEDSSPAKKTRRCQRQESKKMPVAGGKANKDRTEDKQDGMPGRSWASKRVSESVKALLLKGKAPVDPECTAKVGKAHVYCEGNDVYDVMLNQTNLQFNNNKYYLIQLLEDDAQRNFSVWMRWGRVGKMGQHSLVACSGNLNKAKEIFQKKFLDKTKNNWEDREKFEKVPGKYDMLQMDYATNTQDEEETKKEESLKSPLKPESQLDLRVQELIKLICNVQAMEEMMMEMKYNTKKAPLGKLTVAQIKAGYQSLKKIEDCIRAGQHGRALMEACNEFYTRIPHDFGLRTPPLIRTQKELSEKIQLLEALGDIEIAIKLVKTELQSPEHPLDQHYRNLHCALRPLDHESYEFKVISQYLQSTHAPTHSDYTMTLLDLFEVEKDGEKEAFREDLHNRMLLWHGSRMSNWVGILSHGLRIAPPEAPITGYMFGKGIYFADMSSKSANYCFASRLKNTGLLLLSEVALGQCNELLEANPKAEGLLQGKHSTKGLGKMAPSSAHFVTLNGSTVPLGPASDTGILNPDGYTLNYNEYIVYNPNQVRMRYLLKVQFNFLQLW

B1: Pho-DNA-R (dsDNA)
DNA 1: TCCTGACATACTTGATACTTAGACATTCTT
DNA 2: AAGAATGTCTAAGTATCAAGTATGTC
modifications: 3'-terminal FAP-dCMP (photoactivatable C) on strand 2
Q: Does B1 bind (PARP1 [1])?
A: Result: binds

Q: Does B1 bind (PARP2)?
A: Result: binds

B2: Pho-dRP (dsDNA)
DNA 1: GGCGACTAAGCCGGGC
DNA 2: AACGCCAGGGCCTCCC
DNA 3: GGGAGGCCCTGGCGTTGCCCGGCTTAGTCGCC
modifications: 3'-terminal FAP-dCMP on strand 1; 5'-dRP on strand 2
Q: Does B2 bind (PARP1 [2])?
A: Result: binds

Q: Does B2 bind (Ku antigen (Ku70/Ku80))?
A: Result: binds

B3: DNA-R (EMSA, O-R/O1-Pho) (dsDNA)
DNA 1: B1 DNA 1
DNA 2: AAGAATGTCTAAGTATCAAGTATGT
Q: Does B3 bind (PARP3)?
A: Result: no binding

From paper PMC12346409, “Amphiphilic Oligonucleotide Derivatives as a Tool to Study DNA Repair Proteins”
